Assay [1] concerns the target scavenger receptor CD-36 pulled down from macrophage membrane extracts or lysates (UniProt P16671 2-472). Put plainly: plate binding assay on CD-36 pulled down from macrophage membrane extracts.
The target of assay [2] is T1, scavenger receptor SR-AI pulled down from macrophage membrane extracts or lysates (UniProt P21757 1-451).
T1 construct: also called SR-A1
T1 sequence (looked up): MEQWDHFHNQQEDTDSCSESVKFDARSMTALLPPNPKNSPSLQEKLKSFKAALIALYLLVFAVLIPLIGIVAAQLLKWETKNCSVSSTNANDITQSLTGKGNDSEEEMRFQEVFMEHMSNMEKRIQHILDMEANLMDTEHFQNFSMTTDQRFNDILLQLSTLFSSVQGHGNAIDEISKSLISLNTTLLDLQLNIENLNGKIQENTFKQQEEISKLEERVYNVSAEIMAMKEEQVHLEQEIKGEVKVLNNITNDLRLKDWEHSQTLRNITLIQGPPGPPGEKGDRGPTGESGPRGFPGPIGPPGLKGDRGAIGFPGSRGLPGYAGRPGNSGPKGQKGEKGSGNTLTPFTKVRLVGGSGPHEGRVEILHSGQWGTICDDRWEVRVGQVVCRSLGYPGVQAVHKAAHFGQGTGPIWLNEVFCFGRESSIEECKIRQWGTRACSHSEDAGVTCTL
The assay is described as follows: plate binding assay on SR-AI pulled down from macrophage membrane extracts.

Chain of scavenger receptor CD-36 pulled down from macrophage membrane extracts or lysates (P16671 2-472 limits assumed): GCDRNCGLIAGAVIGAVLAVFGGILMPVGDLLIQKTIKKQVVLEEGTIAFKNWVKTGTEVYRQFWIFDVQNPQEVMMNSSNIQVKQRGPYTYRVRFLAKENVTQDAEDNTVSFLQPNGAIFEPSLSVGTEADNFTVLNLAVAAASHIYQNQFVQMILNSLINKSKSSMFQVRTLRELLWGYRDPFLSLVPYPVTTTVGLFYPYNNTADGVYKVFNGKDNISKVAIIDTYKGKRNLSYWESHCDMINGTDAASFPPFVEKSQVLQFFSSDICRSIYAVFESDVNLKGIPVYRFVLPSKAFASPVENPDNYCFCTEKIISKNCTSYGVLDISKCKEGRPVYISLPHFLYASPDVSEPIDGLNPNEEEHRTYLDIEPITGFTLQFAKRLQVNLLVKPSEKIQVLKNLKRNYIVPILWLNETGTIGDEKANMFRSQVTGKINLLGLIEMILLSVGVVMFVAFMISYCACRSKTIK

B1: HIS-tagged HSP27 polypeptide fragment rC1 (other)
chain: MHHHHHHHHDDDDKGGDRWRVSLDVNHFAPDELTVKTKDGVVEITGKHEERQDEHGYISRCFTRKYTLPPGVDPTQVSSSLSPEGTLTVEAPMPKLSTQSNEITIPVTFESRAQLGGPEAAKSDETAAK
notes: also called HSP27 rC1; HSP27 fragment rC1
Consider B1, for which the binding result in assay [1] and in assay [2] was “no binding” throughout.

The values above are taken from US20230210943A1 (PEMI31 THERAPEUTICS, published 2023).
